Laboratory results from a protein production outcome set (Wang et al. 2014).

Assay: label from the status in PepcDB records

Row | Sequence | protein production
1 | MEAPKMALSDVKCRNARPASKLVKLSDGGGLQLWVQPTGSRLWRLAYRFGGKQKLLALGSYPLISLAEAREARDTAKRLLLRGIDPAQERKSQKASAEDTFRSIAEDYVDKLKKEGRADRTITKVKWLLDFAYPTFGDKSVREIDPATILAALRSVEVRGRYESARRMRSTIGSVFRYAIATARADVDPTIALRGALVGPTVTPRAAVTDPKALGGLLRAINAFDGQPTTRAALKLMALLFPRPGELRAAGWDEFDFESSVWSIPEGRMKMRRPHRVPLSTQAVSVLTSLREISGGGSLLFPSVRSGSRPISDNTLNAALRRMGYGKEEATAHGFRATASTLLNECGKWHPDAVERQLAHIENNDVRRAYARAEHWEERVRMMQWWADYLDELESKNSRVVSIGGREASLLSIHPREGLVWKPTATVRQTTSRTSNLRKSH | failed
2 | MQFQDVRLMRVVVCRRLGPAKGQRRWHPLDLGTTGCFENLGAQRPTYRMRAIRMLECAMPNRLVRSLQRWRPFGLPPHRWRLAPWYWRGLQVTLEPGSAIAWIVRLTGGFEETEIDIAAALYSALYPDRCILDVGANVGIHSLAWARLAPVVALEPAPGTHSRLEANVAANGLQDRIRTLRTAAGDAVGEVDFFVAADSAFSSLNDTGRIRIRERTRVPCTTLDALAAELPLPVGLLKIDVEGLERAVIAGAAELLRRDRPVLLVEIYGGAASNPDPERTIADIRAYGYEPFVYADDAGLQPYQRHRDDRYCYFFIPSRKG | failed
3 | MNDRKILVAYFSCSGVTKAVAEKLAAITGADLYEIKPEVPYTEADLDWNDKKSRSSVEMRDALSRPAISGTLFHPEKYEVLFVGFPVWWYIAPTIINTFLESYDFAGKIVVPFATSGGSGIGNCEKNLHKAYPDIVWKDGKLLNGQITRDLVTEWFEKIRL | not failed
4 | MEQADVTSLIPILITLFLALTTRNVVVGLFAGVVSGVAMLEGTFVEKGPLDSFSALMKSYLLPQLTDSYNAGVILLLVFIGGFVALMEKSGGGVAFAKKVTQWVASKCQAQLSAWFGGVVIFFSDLGTPLIVGPVFRPLFDKLKVSRQKLAFIIDSTSSPVAILIPFIGWGVYIMGLIQKEFTALNVSMSDWDAFIGAIPYQFYAFLAIAIVPIVSFFKLDFGPMAKAEQLAEQGSDFGKEQESMNVFTHKNAKSSFVWAPLLVMLVVLCTILVPHGFPFQKVAGSTFRAALSSAYFFAAFTLIALMAFYGVRKLSDGIQVYLKGMSNMMSVAVILVLAWALSSVGKELGAAAYIAEQAQAGFPYWLLPAVAFLLAGIISFATGSSWGTFAIMMPLVIPTAVAIDAPLLVCIGAVLSGGLFGDHCSPISETTILSSTGAGCEQYEHFRTQLPYAVLNGVIALVCFLLAGVAASPVIVLAAIVAQFAIYYVLSKQKPTEQLESVSAE | failed
5 | MAAASPLRDCQAWKDARLPLSTTSNEACKLFDATLTQYVKWTNDKSLGGIEGCLSKLKAADPTFVMGHAMATGLVLIGTGSSVKLDKELDLAVKTMVEISRTQPLTRREQLHVSAVETFANGNFPKACELWEQILQDHPTDMLALKFSHDAYFYLGYQEQMRDSVARIYPFWTPDIPLSSYVKGIYSFGLMETNFYDQAEKLAKEALSINPTDAWSVHTVAHIHEMKAEIKDGLEFMQHSETFWKDSDMLACHNYWHWALYLIEKGEYEAALTIYDTHILPSLQANDAMLDVVDSCSMLYRLQMEGVSVGQRWQDVLPVARKHSRDHILLFNDAHFLMASLGAHDPQTTQELLTTLRDASESPGENCQHLLARDVGLPLCQALVEAEDGNPDRVLELLLPIRYRIVQLGGSNAQRDVFNQLLIHAALNCTSSVHKNVARSLLMERDALKPNSPLTERLIRKAATVHLMQ | failed
6 | MSVPQRPHQFVLTLSCPSAAGQVAAVVGLLDRHRCYVDELTVFDDDLSARFFVRCVFHATDDADALRVDALRREFEPIAERFRMQWAIHDVAARPKVLIMVSKLEHCLADLLFRWKMGELKMDIVGIVSNHPDFAPLAAQHGLPFRHFPITADTKAQQEAQWLDVFETSGAELVILARYMQVLSPEASARLANRAINIHHSFLPGFKGAKPYHQAHARGVKLIGATAHFVTDDLDEGPIIEQVVERVDHSYRPEQLLAVGRDVECITLARAVKAFIERRVFLNGDRTVVFQ | not failed
7 | MNDILQLTIVLIASLIATLVSRRLKIPAVVGQMLVGILIAPSVLGLVHSGHVLEVMSEIGVILLMFLAGIESDLTVLKKNFKASMLVAVGGVIVPLIAFGLVAFGFGYGISTSFFYGIVFAATSVSITVEVLQEYGKLSTRAGSIILGAAVVDDILAVLILSIFTSFKNGGSGSHLFIQFLLELLFFAFLFLVHKLIPRFWKFVQKLPIANKNTIVALIICLGLSLLADSVGMSAVIGSFFAGLAISQTEVSHKIEEYTSAIGYVIFIPVFFVLIAISVQFDSLIHHPWIILLFTFLAILTKFIPAYFVGKASKLSTGESMLIGTGMISRGEMALIVAQIGLTSAIITDEVYSELVIVIILATVLAPFLIKMVLKKYDN | failed
8 | MSSERIVELIKEIYLDFRKGNFKEALVKSEEAHSLDFDNIEILTALKSSVYWNGQVESLDRIGQDYEKAEFLIREWNNFAGRYLKKMGCNFLQGRNSIKYFVFQTCLYIYKNIYKMHPENLDLLIKIAKSYKGMGNYERAINVFLQILGDFKDNSDVVAELADSYALVDEIKEAKVLFREAFFINPQKIDIYSLESDMILRLIDLIKSDRNISDDLIKEWIPVYGSLNGVFNIKRELRPIELGQLKQSVYSLRNELKEKSYRSINESILLPRLINKYFWLIDHYVRIKEDRARIDEILLYIKEIDLGIYQQYVN | failed
9 | GKLFEPYEHMVIDIPSEYQGNVTQLMAARKGQMLSMDNISDEWVRMEYKVPARGLISFRTMFMTETRGTGIANSYSEGLDEWAGEIKGRATGSLVADRSGQITAYALQQLADRGNFFVEPGTE | failed
10 | MGFMIEHWDFSTPMATQETTTAEHIQPNHWYHCERLHPDIRSWLEDNHVPRATVDHLLADESRPSFHPLDDDNFMLILRGINMNENASPEDMLSIRILYFQGALISTRKIPSRAIMEIRQALAEHKGPKSLASLLNQIIEGLNGKIDLYLDTIEETLNEFDVNDESTYNHIAAQKALISIKRFIRPQQYAIRDLIESESELVTSRPHQYRFAHNNITRINETIEFYLGEVALFQDEIKHNRDEKTNKNSYLFTLVATIFLPTSFLTGLL | not failed
11 | APLPVIFIPGIMGTNLRNKADKSEVWRPPNGLWPMDDLFASIGALWTWAWRGPKARQELLKAEQVEVDDQGTIDVGQSGLSEEAARLRGWGKVMRSAYNPVMGLMERRLDNIVSRRELQAWWNDEALSPPGDQGEEQGKVGPIDEEELLRASRYQFDVWCAGYNWLQSNRQSALDVRDYIENTVLPFYQKECGLDPEQMRRMK | failed
12 | MSGNSDEATAPGADWDALAASFDDEPDHGLRDAEVRRAWAARLASWLPAPPGDVLDLGCGTGSLSLLAAEQGHRVTGVDLSPAMVELARTKLAGRDAVFLTGDAAAPPVGEQRFDAVLVRHVLWTLPDPGRALRHWRQLLRPGGRLVLVEGVWGSVSPVGIPADRVTALLGPLTGQARVERLSDDPSLWGREVADERYAVVATYG | failed
13 | MLNPEQVKRFLETAKQDPLYPAFLLALGTGLRRGEILGLRWQDLDLQKGILQVRQSLIRTREGLKFEEPKTEKSRRQIPLPPSVVAALKRHKAWVNQNKLILGPDYEDHDLVFPVENGRPRDPKGFAEYFNRLLDKAGLPHIRLHDLRHTHATLLLLEGVHPKVVQERLGHSTVSITLDIYSHILPGLQEKAAERIDGLLQPKENPSPKEGTIKLEHHHHHH | not failed
14 | MKPLRKIRLGIVGCGIAARELHLPALKNLSHLFEITAVTSRTRSHAEEFAKMVGNPAVFDSYEELLESGLVDAVDLTLPVELNLPFIEKALRKGVHVICEKPISTDVETGKKVVELSEKSEKTVYIAENFRHVPAFWKAKELVESGAIGDPVFMNWQIWVGMDENNKYVHTDWRKKPKHVGGFLSDGGVHHAAAMRLILGEIEWISAVAKDLSPLLGGMDFLSSIFEFENGTVGNYTISYSLKGNERFEITGTKGKISISWDKIVLNEEEMKVPQENSYQKEFEDFYQVVAEGKPNDLGSPVQALKDLAFIEACVRSAGNKVFVSSLL | not failed
15 | MGETAGREHGTVTRSAEYIGSFPVDDSCLDDQIQQLHTQLKSLKNCKSKRTVSLRFSVKGVKVYDEDETTLLMAHAMCRVSLSTARPSDAQFAFASHNPGNSDAQLYCHLFRARHARAAQFLNLLLCRCFQLYFLEKHPEEAQEECSGKKPSRAPSLLNQGFPLSVSALVSFRRAPTQGLLPGAKLFSQQSTEQVSSPEEGPTSSPTIVRKMAIRTKELRSGAYRSFTFTPLKQRHLQDKLSAPQGGMSVHRTLSRLKEFLRKGTSHCKGMHVSSSQFGRNRRSTGSSCVVLGWRV | failed
16 | MESWKVNLISVWFGCFFTGLAISQILPFLPLYVSQLGVTSHEALSMWSGLTFSVTFLVSAIVSPMWGSLADRKGRKLMLLRASLGMAIAILLQAFATNVWQLFILRAIMGLTSGYIPNAMALVASQVPRERSGWALSTLSTAQISGVIGGPLLGGFLADHVGLRMVFFITAILLTISFLVTLFLIKEGVRPQVSKSERLTGKQVFASLPYPGLVISLFFTTLVIQLCNGSIGPILALFIKSMAPDSNNIAFLAGMIAAVPGVSALISAPRLGKLGDRIGTSRILLATLCCAVVMFFAMSFVTTPLQLGTLRFLLGFADGAMLPAVQTLLLKYSSDSVTGRIFGYNQSFMYLGNVAGPLIGASVSAMAGFRWVFIATAIIVFINLWQLAWMLRQTRRANA | not failed
17 | MIEINIQGSSSAGNNYLLADGNSSLMLEAGLKPKDIMKQGINFSNIQGLLVTHEHGDHSKYINDILLAGRFDVWASRGTLEGLGINRRSHILKANQQQKIGDWLVKPFATIHDDKKARAREPLGFLILSPSGKKIVFATDTNYLPKTFKDVTHWLVECNHDIKLVRQSKLPKSVQDRILRTHMSIDACKKFFQSTDLTKTEEIYLIHLSDKNSDPEKFKEEIEKITNKKIIIA | failed
18 | QELKGKYMKTPTGYLMVLRHGDNVLQNLEQLARDEHIPSASFVGIGFMSEATFGFYDFGRKQFDPKTYRNVEMANMTGSIAWKEGKPSIHAHGTVTDGTFQGAGGHLLGLTVGTGSCEITVTVYPQRLDRFVDPEIQANVLGLPQQ | not failed
19 | MDIRQVTETIAMIEEQNFDIRTITMGISLLDCIDPDINRAAEKIYQKITTKAANLVAVGDEIAAELGIPIVNKRVSVTPISLIGAATDATDYVVLAKALDKAAKEIGVDFIGGFSALVQKGYQKGDEILINSIPRALAETDKVCSSVNIGSTKSGINMTAVADMGRIIKETANLSDMGVAKLVVFANAVEDNPFMAGAFHGVGEADVIINVGVSGPGVVKRALEKVRGQSFDVVAETVKKTAFKITRIGQLVGQMASERLGVEFGIVDLSLAPTPAVGDSVARVLEEMGLETVGTHGTTAALALLNDQVKKGGVMACNQVGGLSGAFIPVSEDEGMIAAVQNGSLNLEKLEAMTAICSVGLDMIAIPEDTPAETIAAMIADEAAIGVINMKTTAVRIIPKGKEGDMIEFGGLLGTAPVMKVNGASSVDFISRGGQIPAPIHSFKN | not failed
20 | MFVVAVANTKGGCGKTTLATHLAASFACRGYATGLADLDRQKSALGWLKRRPEGAAPIQGINLAREEDIPEGIERLVVDAAAAMDKDVVKDIVRRADLVVVPVLPGVFDEDGTARFVGHLESLKSIRKNRRDVAFVANRVRLNTRALTRLGGFLEELSFPVIARLRDTQHYTAAAAEGLSLFDLPGGRAADYRAEWTPLLDFIEIRVRGLEHHHHHH | not failed
21 | MRVRNRKGATELLEANPQYVVLNPLEAKAKWRDLFGNDNPIHVEVGSGKGAFVSGMAKQNPDINYIGIDIQKSVLSYALDKVLEVGVPNIKLLWVDGSDLTDYFEDGEIDRLYLNFSDPWPKKRHEKRRLTYKTFLDTFKRILPENGEIHFKTDNRGLFEYSLVSFSQYGMKLNGVWLDLHASDFEGNVMTEYEQKFSNKGQVIYRVEAEF | not failed
22 | SKYKILVSFSNPESGKTLLKLANGLTKKLNSNASLTALHLSPTNELHHYNIEEYEKEIFDPIIEESQQLNQKVTTIFKASNDINYEVADTANKGDYDLLLVG | failed
